For one data set, the target named is thrombin (human, UniProt P00734;P00734 328-363;364-622). Description: FAM fluorescence recovery on GO array.
The target of a further data set is PDGF-BB (human, UniProt P01127 82-190). Briefly: FAM fluorescence recovery on GO array.
PDGF-BB, sequence (P01127 82-190): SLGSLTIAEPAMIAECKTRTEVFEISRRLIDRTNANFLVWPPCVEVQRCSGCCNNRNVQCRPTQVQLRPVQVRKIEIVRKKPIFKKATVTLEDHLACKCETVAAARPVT

B1: thrombin aptamer (TASSET) (structured_DNA)
DNA: AGTCCGTGGTAGGGCAGGTTGGGGTGACT
Regarding B1, the binding result in the data set with thrombin is on record as “binds”.

B2: PDGF aptamer (structured_DNA)
DNA: CAGGCTACGGCACGTAGAGCATCACCATGATCCTG
Consider B2, for which the binding result with PDGF-BB is “binds”.
